How the values were obtained:
[1] = target: T1, recombinant biotinylated monomeric Fc fusion of murine Folate Receptor 1 (mu FolR1 ECD-AcTev-Fcknob-Avitag … (murine, UniProt P0DOX5 223-449 = IgG part, biotin on the C-terminal Avi tag)); experiment: SPR Biacore, single injection on immobilized antigen-Fc
T1 construct: also called muFolR1-Fc; murine FolR1
Protocol: (§1) Binding of FolR1 binders as IgG or in the T-cell bispecific format to different recombinant folate receptors (human FolR1, 2 and 3, murine FolR1 and cynomolgus FolR1; all as Fc fusions) was assessed by surface plasmon resonance (SPR). All SPR experiments were performed on a Biacore T200 at 25° C. with HBS-EP as running buffer (0.01 M HEPES pH 7.4, 0.15 M NaCl, 3 mM EDTA, 0.005% Surfactant P20, Biacore, Freiburg/Germany).
(§2) First the anti-FolR1 IgGs were analyzed by single injections (Table 1) to characterize their crossreactivity (to human, murine and cyno FolR1) and specificity (to human FolR1, human FolR2, human FolR3). Recombinant biotinylated monomeric Fc fusions of human, cynomolgus and murine Folate Receptor 1 (FolR1-Fc) or human Folate Receptor 2 and 3 (FolR2-Fc, FolR3-Fc) were directly coupled on a SA chip using the standard coupling instruction (Biacore, Freiburg/Germany). The immobilization level was about 300-400 RU. The IgGs were injected for 60 seconds at a concentration of 500 nM.

[2] = target: T2, recombinant biotinylated monomeric Fc fusion of human Folate Receptor 2 (hu FolR2 ECD-AcTev-Fcknob-Avi tag … (human, UniProt P0DOX5 223-449 = IgG part, biotin on the C-terminal Avi tag)); experiment: SPR ProteOn, Fab analyte on immobilized antigen-Fc
T2 construct: also called FolR2-Fc
Protocol: (§3) Immobilization of antigens (ligand): Recombinant antigens were diluted with PBST (10 mM phosphate, 150 mM sodium chloride pH 7.4, 0.005% Tween 20) to 10 μg/ml, then injected at 30 μl/minute in vertical orientation. Injection of analytes: For ‘one-shot kinetics’ measurements, injection direction was changed to horizontal orientation, two-fold dilution series of purified Fab (varying concentration ranges) were injected simultaneously along separate channels 1-5, with association times of 200 s, and dissociation times of 600 s. Buffer (PBST) was injected along the sixth channel to provide an “in-line” blank for referencing. Association rate constants (kₒₙ) and dissociation rate constants (koff) were calculated using a simple one-to-one Langmuir binding model in ProteOn Manager v3.1 software by simultaneously fitting the association and dissociation sensorgrams. The equilibrium dissociation constant (KD) was calculated as the ratio koff/kₒₙ.

[3] = target: T3, recombinant biotinylated monomeric Fc fusion of human Folate Receptor 3 (hu FolR3 ECD-AcTev-Fcknob-Avi tag … (human, UniProt P0DOX5 223-449 = IgG part, biotin on the C-terminal Avi tag)); experiment: SPR ProteOn, Fab analyte on immobilized antigen-Fc
T3 construct: also called FolR3-Fc
Protocol: as §3

[4] = target: T4, recombinant biotinylated monomeric Fc fusion of cynomolgus Folate Receptor 1 (cy FolR1 ECD-AcTev-Fcknob-Avi … (cynomolgus, UniProt P0DOX5 223-449 = IgG part, biotin on the C-terminal Avi tag)); experiment: SPR ProteOn, Fab analyte on immobilized antigen-Fc
T4 construct: also called cyFolR1-Fc; cyno FolR1
Protocol: as §3

[5] = target: T5, recombinant biotinylated monomeric Fc fusion of human Folate Receptor 1 (huFolR1 ECD-AcTev-Fcknob-Avi tag … (human, UniProt P0DOX5 223-449 = IgG part, biotin on the C-terminal Avi tag)); experiment: SPR ProteOn, Fab analyte on immobilized antigen-Fc
T5 construct: also called huFolR1-Fc; human FolR1-Fc
Protocol: as §3

[6] = target: T2, recombinant biotinylated monomeric Fc …; experiment: SPR Biacore, single injection on immobilized antigen-Fc
Protocol: as §1, §2

[7] = target: T3, recombinant biotinylated monomeric Fc …; experiment: as above
Protocol: as §1, §2

Binder	binding result [1]	binding result [2]	binding result [3]	Kd [4] [nM]	Kd [5] [nM]	other results
5D9 IgG (antibody, V domains shown, human IgG1) VH: QVQLVQSGAEVKKPGASVKVSCKASGYTFTSYYMHWVRQAPGQGLEWMGIINPSGGSTSYAQKFQGRVTMTRDTSTSTVYMELSSLRSEDTAVYYCARSYIDMDYWGQGTLVTVSS VL: EIVLTQSPGTLSLSPGERATLSCRASQSVSSSYLAWYQQKPGQAPRLLIYGASSRATGIPDRFSGSGSGTDFTLTISRLEPEDFAVYYCQQDNWSPTFGQGTKVEIK	no binding (tested: 500 nM)					
6B6 IgG (antibody, V domains shown, human IgG1) VH: QVQLVQSGAEVKKPGASVKVSCKASGYTFTSYYMHWVRQAPGQGLEWMGIINPSGGSTSYAQKFQGRVTMTRDTSTSTVYMELSSLRSEDTAVYYCARSYVDMDYWGQGTLVTVSS VL: EIVLTQSPGTLSLSPGERATLSCRASQSVSSSYLAWYQQKPGQAPRLLIYGASSRATGIPDRFSGSGSGTDFTLTISRLEPEDFAVYYCQQDIWSPTFGQGTKVEIK	no binding (tested: 500 nM)					
15A1 Fab (Fab, V domains shown, bacterial Fab) VH: QVQLVQSGAEVKKPGASVKVSCKASGYTFTSYYMHWVRQAPGQGLEWMGIINPSGGSTSYAQKFQGRVTMTRDTSTSTVYMELSSLRSEDTAVYYCARNYYIGVVTFDYWGQGTLVTVSS VL: QAVVTQEPSLTVSPGGTVTLTCGSSTGAVTTSNYANWVQEKPGQAFRGLIGGTNKRAPGTPARFSGSLLGGKAALTLSGAQPEDEAEYYCALWYSNLWVFGGGTKLTVL		no binding	no binding	17.3	30.9	
16A3 Fab (Fab, V domains shown, bacterial Fab) VH: QVQLVQSGAEVKKPGASVKVSCKASGYTFTSYYMHWVRQAPGQGLEWMGIINPSGGSTSYAQKFQGRVTMTRDTSTSTVYMELSSLRSEDTAVYYCARNYYAGVTPFDYWGQGTLVTVSS VL: QAVVTQEPSLTVSPGGTVTLTCGSSTGAVTTSNYANWVQEKPGQAFRGLIGGTNKRAPGTPARFSGSLLGGKAALTLSGAQPEDEAEYYCALWYSNLWVFGGGTKLTVL		no binding	no binding	18	21.7	
18D3 Fab (Fab, V domains shown, bacterial Fab) VH: QVQLVQSGAEVKKPGASVKVSCKASGYTFTSYYMHWVRQAPGQGLEWMGIINPSGGSTSYAQKFQGRVTMTRDTSTSTVYMELSSLRSEDTAVYYCARNYYTGGSSAFDYWGQGTLVTVS VL: QAVVTQEPSLTVSPGGTVTLTCGSSTGAVTTSNYANWVQEKPGQAFRGLIGGTNKRAPGTPARFSGSLLGGKAALTLSGAQPEDEAEYYCALWYSNLWVFGGGTKLTVL		no binding	no binding	40.2	93.6	
15B6 IgG (antibody, V domains shown, human IgG1) VH: QVQLVQSGAEVKKPGASVKVSCKASGYTFTSYYMHWVRQAPGQGLEWMGIINPSGGSTSYAQKFQGRVTMTRDTSTSTVYMELSSLRSEDTAVYYCARNYYIGIVPFDYWGQGTLVTVSS VL: QAVVTQEPSLTVSPGGTVTLTCGSSTGAVTTSNYANWVQEKPGQAFRGLIGGTNKRAPGTPARFSGSLLGGKAALTLSGAQPEDEAEYYCALWYSNLWVFGGGTKLTVL	no binding (tested: 500 nM)					binding result [6]: no binding (tested: 500 nM); binding result [7]: no binding (tested: 500 nM)
21G8 IgG (antibody, V domains shown, human IgG1) VH: not shown VL: QAVVTQEPSLTVSPGGTVTLTCGSSTGAVTTSNYANWVQEKPGQAFRGLIGGTNKRAPGTPARFSGSLLGGKAALTLSGAQPEDEAEYYCALWYSNLWVFGGGTKLTVL	no binding (tested: 500 nM)					
15H7 Fab (Fab, V domains shown, bacterial Fab) VH: QVQLVQSGAEVKKPGASVKVSCKASGYTFTSYYMHWVRQAPGQGLEWMGIINPSGGSTSYAQKFQGRVTMTRDTSTSTVYMELSSLRSEDTAVYYCARNYYLFSTSFDYWGQGTLVTVSS VL: QAVVTQEPSLTVSPGGTVTLTCGSSTGAVTTSNYANWVQEKPGQAFRGLIGGTNKRAPGTPARFSGSLLGGKAALTLSGAQPEDEAEYYCALWYSNLWVFGGGTKLTVL		no binding	no binding	72.5		
20G6 Fab (Fab, V domains shown, bacterial Fab) VH: QVQLVQSGAEVKKPGASVKVSCKASGYTFTSYYMHWVRQAPGQGLEWMGIINPSGGSTSYAQKFQGRVTMTRDTSTSTVYMELSSLRSEDTAVYYCARGEWIRYYHFDYWGQGTLVTVSS VL: QAVVTQEPSLTVSPGGTVTLTCGSSTGAVTTSNYANWVQEKPGQAFRGLIGGTNKRAPGTPARFSGSLLGGKAALTLSGAQPEDEAEYYCALWYSNLWVFGGGTKLTVL		no binding	no binding			binding result [4]: no binding; binding result [5]: no binding
19H3 Fab (Fab, V domains shown, bacterial Fab) VH: QVQLVQSGAEVKKPGASVKVSCKASGYTFTSYYMHWVRQAPGQGLEWMGIINPSGGSTSYAQKFQGRVTMTRDTSTSTVYMELSSLRSEDTAVYYCARTGWSRWGYMDYWGQGTLVTVSS VL: QAVVTQEPSLTVSPGGTVTLTCGSSTGAVTTSNYANWVQEKPGQAFRGLIGGTNKRAPGTPARFSGSLLGGKAALTLSGAQPEDEAEYYCALWYSNLWVFGGGTKLTVL		no binding	no binding			binding result [4]: no binding; binding result [5]: no binding
19E5 Fab (Fab, V domains shown, bacterial Fab) VH: QVQLVQSGAEVKKPGASVKVSCKASGYTFTSYYMHWVRQAPGQGLEWMGIINPSGGSTSYAQKFQGRVTMTRDTSTSTVYMELSSLRSEDTAVYYCARGEWRRYTSFDYWGQGTLVTVSS VL: QAVVTQEPSLTVSPGGTVTLTCGSSTGAVTTSNYANWVQEKPGQAFRGLIGGTNKRAPGTPARFSGSLLGGKAALTLSGAQPEDEAEYYCALWYSNLWVFGGGTKLTVL				276		
16F12 IgG (antibody, V domains shown, human IgG1) VH: QVQLVQSGAEVKKPGASVKVSCKASGYTFTSYYMHWVRQAPGQGLEWMGIINPSGGSTSYAQKFQGRVTMTRDTSTSTVYMELSSLRSEDTAVYYCARNFTVLRVPFDYWGQGTLVTVSS VL: QAVVTQEPSLTVSPGGTVTLTCGSSTGAVTTSNYANWVQEKPGQAFRGLIGGTNKRAPGTPARFSGSLLGGKAALTLSGAQPEDEAEYYCALWYSNLWVFGGGTKLTVL	no binding (tested: 500 nM)					binding result [6]: no binding (tested: 500 nM); binding result [7]: no binding (tested: 500 nM)
21D1 Fab (Fab, V domains shown, bacterial Fab) VH: QVQLVQSGAEVKKPGASVKVSCKASGYTFTSYYMHWVRQAPGQGLEWMGIINPSGGSTSYAQKFQGRVTMTRDTSTSTVYMELSSLRSEDTAVYYCARNYYVGVSPFDYWGQGTLVTVSS VL: QAVVTQEPSLTVSPGGTVTLTCGSSTGAVTTSNYANWVQEKPGQAFRGLIGGTNKRAPGTPARFSGSLLGGKAALTLSGAQPEDEAEYYCALWYSNLWVFGGGTKLTVL		no binding	no binding	32.1	62.6	

— patent US20220220224A1 (Hoffmann-La Roche, published 2022)
